In patent US20230406922A1:
Blank lines part the entries; values can stand above or below the substance they belong to.

Key:
[1] = molecular target: human CD19, full length, on cells (human) (UniProt P15391); test: FACS on CHO-K1-human CD19-1C9 cells
[2] = molecular target: human CD19, full length, on cells (human) (UniProt P15391); test: FACS on CHO-K1-human CD19-2G4 cells
[3] = molecular target: human CD19, full length, on cells (human) (UniProt P15391); test: FACS on CHO-K1-human CD19-1C4 cells
[4] = molecular target: monkey CD19, full length, on HEK293T cells (monkey); test: FACS on HEK293T-monkey CD19 cells
[5] = molecular target: human CD19, full length, on cells (human) (UniProt P15391); test: FACS on Raji cells (endogenous CD19)
[6] = molecular target: human CD19, full length, on cells (human) (UniProt P15391); test: FACS on CHO-K1-human CD19-2C8 cells
[7] = molecular target: murine CD19 protein (murine) (UniProt P25918); test: ELISA, murine CD19 coated
murine CD19 protein (murine), sequence (P25918 19-287 limits assumed): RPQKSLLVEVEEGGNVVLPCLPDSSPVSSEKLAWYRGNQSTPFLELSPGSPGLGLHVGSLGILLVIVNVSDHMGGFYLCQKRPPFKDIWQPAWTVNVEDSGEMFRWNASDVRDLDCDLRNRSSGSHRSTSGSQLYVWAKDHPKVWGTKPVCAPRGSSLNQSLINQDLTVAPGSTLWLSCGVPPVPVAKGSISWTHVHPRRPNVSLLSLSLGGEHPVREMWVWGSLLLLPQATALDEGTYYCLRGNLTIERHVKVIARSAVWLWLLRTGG

[8] = molecular target: cynomolgus monkey CD19 on peripheral blood B cells (cynomolgus monkey (Macaca fascicularis)); test: FACS on cynomolgus monkey PBMC, gated on CD20-positive B cells
[9] = molecular target: human CD19, full length, on cells (human) (UniProt P15391); test: FACS on CHO-K1-human CD19 cells
[10] = molecular target: human CD19-his protein (human) (UniProt P15391); test: ELISA, human CD19-his coated at 4 ug/mL
[11] = molecular target: human CD19, full length, on cells (human) (UniProt P15391); test: FACS on Raji cells

mean fluorescence intensity of cells [1]: 50 MFI
mean fluorescence intensity of cells [2]: 50 MFI
mean fluorescence intensity of cells [3]: 50 MFI
mean fluorescence intensity of cells [4]: 62 MFI
mean fluorescence intensity of cells [5]: 78 MFI
mean fluorescence intensity of cells [6]: 50 MFI
Substance: IgG subtype control (antibody)

OD450 at 0.0001 nM [7]: 0.07 OD450
OD450 at 0.001 nM [7]: 0.06 OD450
OD450 at 0.01 nM [7]: 0.06 OD450
OD450 at 0.10 nM [7]: 0.06 OD450
OD450 at 1.00 nM [7]: 0.06 OD450
OD450 at 10.00 nM [7]: 0.08 OD450
OD450 at 100.00 nM [7]: 0.11 OD450
proportion of positive cells to B cells (%) at 1 nM [8]: 3%
proportion of positive cells to B cells (%) at 10 nM [8]: 5%
proportion of positive cells to B cells (%) at 100 nM [8]: 11%
maximum mean fluorescence intensity [9]: 102 MFI
maximum mean fluorescence intensity [4]: 165 MFI
OD450 at 0.0001 nM [10]: 0.11 OD450
OD450 at 0.001 nM [10]: 0.12 OD450
OD450 at 0.01 nM [10]: 0.11 OD450
OD450 at 0.10 nM [10]: 0.11 OD450
OD450 at 1.00 nM [10]: 0.11 OD450
OD450 at 10.00 nM [10]: 0.12 OD450
OD450 at 100.00 nM [10]: 0.15 OD450
maximum mean fluorescence intensity [11]: 382 MFI
Substance: negative control antibody mIgG1 (anti-hel-mIgG1, antibody against hen egg lysozyme)
